± gives the standard deviation of the averaged measurements.
Test: total protein half-life in vivo (active degradation + dilution); higher = more stable protein
[1] = E. coli NCM3722 delta-clpP delta-lon delta-hslV, growth: N-lim chemostat, doubling time 6 h
[2] = E. coli NCM3722 delta-clpP, growth: N-lim chemostat, doubling time 6 h
[3] = E. coli NCM3722 delta-hslV, growth: N-lim chemostat, doubling time 6 h
[4] = E. coli NCM3722 delta-smpB, growth: N-lim chemostat, doubling time 6 h
[5] = wild type E. coli NCM3722, growth: C-lim chemostat, doubling time 3 h
[6] = wild type E. coli NCM3722, growth: C-lim chemostat, doubling time 6 h
[7] = wild type E. coli NCM3722, growth: C-lim chemostat, doubling time 12 h
[8] = wild type E. coli NCM3722, growth: N-lim chemostat, doubling time 6 h
[9] = wild type E. coli NCM3722, growth: N-lim chemostat, doubling time 12 h
[10] = wild type E. coli NCM3722, growth: P-lim chemostat, doubling time 6 h
[11] = wild type E. coli NCM3722, growth: P-lim chemostat, doubling time 12 h
[12] = E. coli NCM3722 delta-lon, growth: N-lim chemostat, doubling time 6 h

MIIKRTPQAASPLASWLSYLENLHSKTIDLGLERVSLVAARLGVLKPAPFVFTVAGTNGKGTTCRTLESILMAAGYKVGVYSSPHLVRYTERVRVQGQELPESAHTASFAEIESARGDISLTYFEYGTLSALWLFKQAQLDVVILEVGLGGRLDATNIVDADVAVVTSIALDHTDWLGPDRESIGREKAGIFRSEKPAIVGEPEMPSTIADVAQEKGALLQRRGVEWNYSVTDHDWAFSDAHGTLENLPLPLVPQPNAATALAALRASGLEVSENAIRDGIASAILPGRFQIVSESPRVIFDVAHNPHAAEYLTGRMKALPKNGRVLAVIGMLHDKDIAGTLAWLKSVVDDWYCAPLEGPRGATAEQLLEHLGNGKSFDSVAQAWDAAMADAKAEDTVLVCGSFHTVAHVMEVIDARRSGGK
total protein half-life in vivo [1]: 4.62 ± 0.55 h
total protein half-life in vivo [2]: 4.95 ± 1.1 h
total protein half-life in vivo [3]: 4.08 ± 0.39 h
total protein half-life in vivo [4]: 3.813 ± 0.021 h
total protein half-life in vivo [5]: 3.151 ± 0.024 h
total protein half-life in vivo [6]: 5.09 ± 0.13 h
total protein half-life in vivo [7]: 9.2 ± 1.6 h
total protein half-life in vivo [8]: 3.807 ± 0.036 h
total protein half-life in vivo [9]: 6.07 ± 0.99 h
total protein half-life in vivo [10]: 5.34 ± 0.23 h
total protein half-life in vivo [11]: 9.6 ± 0.66 h

MIINNVKLVLENEVVSGSLEVQNGEIRAFAESQSRLPEAMDGEGGWLLPGLIELHTDNLDKFFTPRPKVDWPAHSAMSSHDALMVASGITTVLDAVAIGDVRDGGDRLENLEKMINAIEETQKRGVNRAEHRLHLRCELPHHTTLPLFEKLVQREPVTLVSLMDHSPGQRQFANREKYREYYQGKYSLTDAQMQQYEEEQLALAARWSQPNRESIAALCRARKIALASHDDATHAHVAESHQLGSVIAEFPTTFEAAEASRKHGMNVLMGAPNIVRGGSHSGNVAASELAQLGLLDILSSDYYPASLLDAAFRVADDQSNRFTLPQAVKLVTKNPAQALNLQDRGVIGEGKRADLVLAHRKDNHIHIDHVWRQGKRVF
total protein half-life in vivo [10]: 1.05 ± 0.23 h
total protein half-life in vivo [11]: 1.89 ± 0.87 h

MIISAASDYRAAAQRILPPFLFHYMDGGAYSEYTLRRNVEDLSEVALRQRILKNMSDLSLETTLFNEKLSMPVALAPVGLCGMYARRGEVQAAKAADAHGIPFTLSTVSVCPIEEVAPAIKRPMWFQLYVLRDRGFMRNALERAKAAGCSTLVFTVDMPTPGARYRDAHSGMSGPNAAMRRYLQAVTHPQWAWDVGLNGRPHDLGNISAYLGKPTGLEDYIGWLGNNFDPSISWKDLEWIRDFWDGPMVIKGILDPEDARDAVRFGADGIVVSNHGGRQLDGVLSSARALPAIADAVKGDIAILADSGIRNGLDVVRMIALGADTVLLGRAFLYALATAGQAGVANLLNLIEKEMKVAMTLTGAKSISEITQDSLVQGLGKELPAALAPMAKGNAA
total protein half-life in vivo [1]: 6.01 ± 0.3 h
total protein half-life in vivo [2]: 5.992 ± 0.053 h
total protein half-life in vivo [3]: 4 ± 0.14 h
total protein half-life in vivo [12]: 3.3 ± 0.036 h
total protein half-life in vivo [4]: 3.68 ± 0.38 h
total protein half-life in vivo [5]: 2.28 ± 0.062 h
total protein half-life in vivo [6]: 3.76 ± 0.41 h
total protein half-life in vivo [7]: 5.29 ± 0.5 h
total protein half-life in vivo [8]: 3.73 ± 0.068 h
total protein half-life in vivo [9]: 6.57 ± 0.92 h
total protein half-life in vivo [10]: 3.28 ± 0.48 h
total protein half-life in vivo [11]: 6.38 ± 0.44 h

MIISEMQRKLATWAATDPSLRIQRLLRLITQPEWLAEAARITLSSKGAHTPGVDGVNKTMLQARLAVELQILRDELLSGHYQPLPARRVYIPKSNGKLRPLGIPALRDRIVQRAMLMAMEPIWESDFHTLSYGFRPERSVHHAIRTVKLQLTDCGETRGRWVIEGDLSSYFDTVHHRLLMKAVRRRISDARFMTLLWKTIKAGHIDVGLFRAASEGVPQGGVISPLLSNIMLNEFDQYLHERYLSGKARKDRWYWNNSIQRGRSTAVRENWQWKPAVAYCRYADDFVLIVKGTKAQVEAIREECRGVLEGSLKLRLNMDKTKIPHVNDGFIFLGHRLIRKRSRYGEMRVVSTIPQEKARNFAASLTALLWKVRISGEILLG
total protein half-life in vivo [1]: 4.72 ± 0.55 h

MIIYLHGFDSNSPGNHEKVLQLQFIDPDVRLISYSTRHPKHDMQHLLKEVDKMLQLNVDERPLICGVGLGGYWAERIGFLCDIRQVIFNPNLFPYENMEGKIDRPEEYADIATKCVTNFREKNRDRCLVILSRNDEALNSQRTSEELHHYYEIVWDEEQTHKFKNISPHLQRIKAFKTLG [P0A8E1]
total protein half-life in vivo [1]: 4.77 ± 0.071 h
total protein half-life in vivo [2]: 4.58 ± 1.1 h
total protein half-life in vivo [3]: 4.44 ± 0.73 h
total protein half-life in vivo [12]: 4.75 ± 0.35 h
total protein half-life in vivo [4]: 4.37 ± 0.91 h
total protein half-life in vivo [5]: 2.64 ± 0.47 h
total protein half-life in vivo [6]: 4.65 ± 0.2 h
total protein half-life in vivo [7]: 7.7 ± 1.6 h
total protein half-life in vivo [8]: 3.92 ± 0.39 h
total protein half-life in vivo [9]: 6.49 ± 0.25 h
total protein half-life in vivo [10]: 5.07 ± 0.15 h
total protein half-life in vivo [11]: 10.6 ± 0.38 h

MIKATDRKLVVGLEIGTAKVAALVGEVLPDGMVNIIGVGSCPSRGMDKGGVNDLESVVKCVQRAIDQAELMADCQISSVYLALSGKHISCQNEIGMVPISEEEVTQEDVENVVHTAKSVRVRDEHRVLHVIPQEYAIDYQEGIKNPVGLSGVRMQAKVHLITCHNDMAKNIVKAVERCGLKVDQLIFAGLASSYSVLTEDERELGVCVVDIGGGTMDIAVYTGGALRHTKVIPYAGNVVTSDIAYAFGTPPSDAEAIKVRHGCALGSIVGKDESVEVPSVGGRPPRSLQRQTLAEVIEPRYTELLNLVNEEILQLQEKLRQQGVKHHLAAGIVLTGGAAQIEGLAACAQRVFHTQVRIGAPLNITGLTDYAQEPYYSTAVGLLHYGKESHLNGEAEVEKRVTASVGSWIKRLNSWLRKEF [P0ABH0]
total protein half-life in vivo [1]: 6.03 ± 0.16 h
total protein half-life in vivo [2]: 6.41 ± 0.51 h
total protein half-life in vivo [3]: 6.33 ± 0.27 h
total protein half-life in vivo [12]: 6.06 ± 0.5 h
total protein half-life in vivo [4]: 5.42 ± 0.13 h
total protein half-life in vivo [5]: 3.04 ± 0.12 h
total protein half-life in vivo [6]: 5.738 ± 0.047 h
total protein half-life in vivo [7]: 10 ± 0.52 h
total protein half-life in vivo [8]: 5.48 ± 0.26 h
total protein half-life in vivo [9]: 10.8 ± 0.71 h
total protein half-life in vivo [10]: 5.868 ± 0.02 h
total protein half-life in vivo [11]: 11.3 ± 0.42 h

Source: the supplement of paper PMC11246515
